Source: patent publication US20230322958A1 (Genentech, published 2023)

T1: huNotch2-EGF6-10 (human, UniProt Q04721 219-418)
T1 construct: also called human Notch2 EGF6-10
T1 sequence: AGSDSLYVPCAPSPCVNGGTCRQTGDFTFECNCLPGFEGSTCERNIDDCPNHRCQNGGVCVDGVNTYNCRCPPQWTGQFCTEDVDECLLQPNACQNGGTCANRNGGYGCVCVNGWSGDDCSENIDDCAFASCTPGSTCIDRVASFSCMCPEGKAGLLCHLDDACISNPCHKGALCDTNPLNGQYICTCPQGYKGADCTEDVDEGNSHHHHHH


Key:
huNotch2-EGF6-10 [1] = target: T1, huNotch2-EGF6-10; assay: SPR BIAcore T200, antibody captured on protein A, 37 C
Description: (§1) The binding affinities of the antibodies was determined by BIAcore™ T200 machine. Rabbit antibodies were expressed as chimeric antibodies with rabbit variable domains and human constant domains. Rat antibodies were expressed as chimeric antibodies with rat variable domains and human constant regions. Humanized antibodies were expressed in the human IgG1 backbone. For kinetics measurements, antibodies were captured on research grade protein A chip (GE Healthcare) to achieve approximately 300 RU. Ten-fold serial dilutions of huNotch2-EGF6-10 were injected in HBS-P buffer with additional 3 mM CaCl₂ at 37° C. with a flow rate of 100 μL/min. Association rates (ka) and dissociation rates (kd) were calculated using a 1:1 Langmuir binding model (BIAcore™ T200 Evaluation Software version 2.0). The equilibrium dissociation constant (KD) was calculated as the ratio kd/ka.

[2] = target: T2, human Notch2 on U-87 MG cells (human, UniProt Q04721 26-2471); assay: cell-based or functional assay
[3] = target: T2, human Notch2 on U-87 MG cells; assay: cell-based or functional assay; remark: listed apart in the source
huNotch2-EGF6-10 [4] = target: T1, huNotch2-EGF6-10; assay: SPR BIAcore, separate experiment, substantially as for Table 4
Description: as §1
In a separate experiment, the binding affinities of the humanized versions of the rat 3107 antibody were determined, substantially as described above.

T2 sequence (Q04721 26-2471): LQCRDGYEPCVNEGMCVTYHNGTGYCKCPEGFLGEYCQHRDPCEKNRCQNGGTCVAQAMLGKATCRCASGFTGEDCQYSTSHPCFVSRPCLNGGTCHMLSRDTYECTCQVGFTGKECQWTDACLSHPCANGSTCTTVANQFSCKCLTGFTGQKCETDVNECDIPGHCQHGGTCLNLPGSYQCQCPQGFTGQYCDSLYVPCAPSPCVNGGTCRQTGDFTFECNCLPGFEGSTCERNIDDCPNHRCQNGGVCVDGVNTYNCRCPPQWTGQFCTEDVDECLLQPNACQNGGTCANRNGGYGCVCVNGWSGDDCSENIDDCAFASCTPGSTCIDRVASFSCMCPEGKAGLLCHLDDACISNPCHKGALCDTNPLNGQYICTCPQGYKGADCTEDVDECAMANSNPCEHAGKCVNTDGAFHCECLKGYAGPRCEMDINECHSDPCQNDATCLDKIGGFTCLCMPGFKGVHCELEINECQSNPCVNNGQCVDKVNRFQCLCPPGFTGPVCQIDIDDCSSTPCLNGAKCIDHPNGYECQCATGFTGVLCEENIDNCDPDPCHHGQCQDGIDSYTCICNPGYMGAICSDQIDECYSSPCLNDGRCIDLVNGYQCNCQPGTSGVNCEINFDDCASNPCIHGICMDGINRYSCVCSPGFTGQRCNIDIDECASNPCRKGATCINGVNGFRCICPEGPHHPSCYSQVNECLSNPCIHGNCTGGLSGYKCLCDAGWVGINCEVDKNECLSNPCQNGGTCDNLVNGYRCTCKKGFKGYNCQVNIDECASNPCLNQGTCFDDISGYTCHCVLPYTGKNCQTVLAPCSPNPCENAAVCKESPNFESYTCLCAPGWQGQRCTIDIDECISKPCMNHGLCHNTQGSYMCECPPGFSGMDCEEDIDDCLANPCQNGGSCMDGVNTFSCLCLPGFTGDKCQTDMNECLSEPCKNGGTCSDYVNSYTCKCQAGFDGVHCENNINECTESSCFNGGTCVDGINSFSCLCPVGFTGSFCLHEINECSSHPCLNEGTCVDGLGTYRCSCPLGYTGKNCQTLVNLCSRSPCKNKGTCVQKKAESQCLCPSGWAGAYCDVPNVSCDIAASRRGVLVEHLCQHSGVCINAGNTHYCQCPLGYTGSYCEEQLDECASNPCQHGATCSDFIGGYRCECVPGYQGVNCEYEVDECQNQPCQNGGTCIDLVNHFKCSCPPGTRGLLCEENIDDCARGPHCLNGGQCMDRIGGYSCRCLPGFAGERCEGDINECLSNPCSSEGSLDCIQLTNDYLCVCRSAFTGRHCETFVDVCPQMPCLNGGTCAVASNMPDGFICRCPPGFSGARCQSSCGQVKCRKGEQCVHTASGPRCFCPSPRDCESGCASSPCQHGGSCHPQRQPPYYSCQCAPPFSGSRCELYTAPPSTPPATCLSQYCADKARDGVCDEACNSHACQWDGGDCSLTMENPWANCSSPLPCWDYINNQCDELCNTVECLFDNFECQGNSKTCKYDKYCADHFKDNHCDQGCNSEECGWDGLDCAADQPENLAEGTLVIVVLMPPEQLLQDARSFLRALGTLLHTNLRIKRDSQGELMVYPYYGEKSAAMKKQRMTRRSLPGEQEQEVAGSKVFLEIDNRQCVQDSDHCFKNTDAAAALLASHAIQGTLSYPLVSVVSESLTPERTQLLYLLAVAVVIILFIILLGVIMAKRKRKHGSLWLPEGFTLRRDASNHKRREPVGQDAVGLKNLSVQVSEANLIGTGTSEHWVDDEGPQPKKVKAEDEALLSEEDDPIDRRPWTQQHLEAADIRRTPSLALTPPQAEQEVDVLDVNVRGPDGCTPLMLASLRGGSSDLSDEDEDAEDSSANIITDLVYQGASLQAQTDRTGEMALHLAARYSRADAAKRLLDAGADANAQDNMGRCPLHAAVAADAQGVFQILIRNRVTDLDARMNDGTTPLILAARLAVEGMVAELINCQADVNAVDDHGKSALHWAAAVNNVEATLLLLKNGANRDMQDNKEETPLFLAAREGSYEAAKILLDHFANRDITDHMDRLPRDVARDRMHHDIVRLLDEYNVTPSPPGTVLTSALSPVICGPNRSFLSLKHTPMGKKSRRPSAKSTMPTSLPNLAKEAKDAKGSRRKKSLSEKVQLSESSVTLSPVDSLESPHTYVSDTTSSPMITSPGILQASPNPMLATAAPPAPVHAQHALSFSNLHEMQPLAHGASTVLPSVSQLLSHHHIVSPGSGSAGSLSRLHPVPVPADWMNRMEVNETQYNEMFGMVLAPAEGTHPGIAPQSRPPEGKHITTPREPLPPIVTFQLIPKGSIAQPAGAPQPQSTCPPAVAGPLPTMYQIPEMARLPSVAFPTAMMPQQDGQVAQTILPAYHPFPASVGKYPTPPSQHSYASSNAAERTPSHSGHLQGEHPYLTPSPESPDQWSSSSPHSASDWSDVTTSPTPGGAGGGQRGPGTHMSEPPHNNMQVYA

Row | Binder | Kd (huNotch2-EGF6-10 [1]) [nM] | koff (huNotch2-EGF6-10 [1]) [s⁻¹] | kon (huNotch2-EGF6-10 [1]) [M⁻¹ s⁻¹] | DLL Inhibition (IC50) [2] [nM] | Jag1 Inhibition (IC50) [2] [nM] | Jagged1 IC50 [3] [nM] | Kd (huNotch2-EGF6-10 [4]) [nM] | koff (huNotch2-EGF6-10 [4]) [s⁻¹] | kon (huNotch2-EGF6-10 [4]) [M⁻¹ s⁻¹]
1 | hu1B2.L7H10 (antibody, V domains shown, Human IgG1 backbone) VH: EVQLVESGGGLVQPGGSLKLSCAVSGFTFSDFYMEWVRQASGKGLEWVAASRNKANDFSIVYSASVKDRFTISRDDSKSTAYLQMNSLKTEDTAVYYCSRDSGRWGLDAWGQGTLVTVSS VL: DIQMTQSPSSVSASVGDRVTITCQTSEDIYSGLAWYQQKPGKSPKLLIYGASRLQDGVPSRFSGSGSGTDYTLTISSLQPEDFATYYCQQGFKYPLTFGGGTKVEIK | 9.94 | 0.00415 | 418000 |  |  |  |  |  | 
2 | 1B2.v104.huFab.LC_K149C (Fab, V domains shown) VH: EVQLVESGGGLVQPGGSLKLSCAVSGFTFSDFYMEWVRQASGKGLEWVAAQRNKANDFSIVYSASVKDRFTISRDDSKSTLYLQMNSLKTEDTAVYYCSRDGGKLALDAWGQGTLVTVSS VL: DIQMTQSPSSVSASVGDRVTITCQTSEDIYSGLAWYQQKPGKSPKLLIYGASRLQDGVPSRFSGSGSGTDYTLTISSLQPEDFATYYCQQGFKYPLTFGGGTKVEIKR |  |  |  | 50 | 120 |  |  |  | 
3 | hu1B2.L7H14 (antibody, V domains shown, Human IgG1 backbone; also called hu.1B2.DFS.H14L7) VH: EVQLVESGGGLVQPGGSLKLSCAVSGFTFSDFYMEWVRQASGKGLEWVAASRNKANDFSIVYSASVKDRFTISRDDSKSTLYLQMNSLKTEDTAVYYCSRDSGRWGLDAWGQGTLVTVSS VL: DIQMTQSPSSVSASVGDRVTITCQTSEDIYSGLAWYQQKPGKSPKLLIYGASRLQDGVPSRFSGSGSGTDYTLTISSLQPEDFATYYCQQGFKYPLTFGGGTKVEIK | 6.13 | 0.00134 | 219000 |  |  |  |  |  | 
4 | hu.3107.L6H12 (antibody, V domains shown, also called hu.Notch-3107.L6H12) VH: EVQLVQSGAEVKKPGASVKVSCKASGYTFSNYVIHWVRQAPGQGPEWTGYIIPGSGGTKFNEKFKGRATSTVDTSSTTAYMELSRLRSDDTVVYYCARDGAGSFTYWGQGTLVTVSS VL: DVVMTQSPDSLAVSLGERATINCRSSQSLVHSDGNTYLHWFQQKPGQPPKLLIYRISNRFSGVPDRFSGSGSGTDFTLTISSLQAEDVAVYYCLQSTHFPDTFGGGTKVEIK |  |  |  |  |  | 4.71 | 9.79 | 0.00404 | 413000
5 | hu.3107.L1H14 (antibody, V domains shown, also called hu.Notch-3107.L1H14) VH: EVQLVQSGAEVKKPGESLKISCKGSGYTFSNYVIHWVRQMPGKGPEWTGYIIPGSGGTKFNEKFKGQATISVDKSSTTAYLQWSSLKASDTAMYYCARDGAGSFTYWGQGTLVTVSS VL: DVVMTQSPLSLPVTLGQPASISCRSSQSLVHSDGNTYLHWFQQRPGQSPRLLIYRISNRFSGVPDRFSGSGSGTDFTLKISRVEAEDVGVYYCLQSTHFPDTFGGGTKVEIK |  |  |  |  |  | 6.95 | 17.5 | 0.00631 | 360000
6 | hu.3107.L1H12 (antibody, V domains shown, also called hu.Notch-3107.L1H12) VH: EVQLVQSGAEVKKPGASVKVSCKASGYTFSNYVIHWVRQAPGQGPEWTGYIIPGSGGTKFNEKFKGRATSTVDTSSTTAYMELSRLRSDDTVVYYCARDGAGSFTYWGQGTLVTVSS VL: DVVMTQSPLSLPVTLGQPASISCRSSQSLVHSDGNTYLHWFQQRPGQSPRLLIYRISNRFSGVPDRFSGSGSGTDFTLKISRVEAEDVGVYYCLQSTHFPDTFGGGTKVEIK |  |  |  |  |  | 7.85 | 14.3 | 0.00542 | 380000
7 | hu.3107.L6H14 (antibody, V domains shown, also called hu.Notch-3107.L6H14) VH: EVQLVQSGAEVKKPGESLKISCKGSGYTFSNYVIHWVRQMPGKGPEWTGYIIPGSGGTKFNEKFKGQATISVDKSSTTAYLQWSSLKASDTAMYYCARDGAGSFTYWGQGTLVTVSS VL: DVVMTQSPDSLAVSLGERATINCRSSQSLVHSDGNTYLHWFQQKPGQPPKLLIYRISNRFSGVPDRFSGSGSGTDFTLTISSLQAEDVAVYYCLQSTHFPDTFGGGTKVEIK |  |  |  |  |  | 6.65 | 10 | 0.00354 | 354000
8 | hu.3107.L1H15 (antibody, V domains shown, also called hu.Notch-3107.L1H15) VH: EVQLVQSGAEVKKPGESLKISCKGSGYTFSNYVIHWVRQMPGKGPEWTGYIIPGSGGTKFNEKFKGQATISVDKSITTAYLQWSSLKASDTAMYYCARDGAGSFTYWGQGTLVTVSS VL: DVVMTQSPLSLPVTLGQPASISCRSSQSLVHSDGNTYLHWFQQRPGQSPRLLIYRISNRFSGVPDRFSGSGSGTDFTLKISRVEAEDVGVYYCLQSTHFPDTFGGGTKVEIK |  |  |  |  |  | 6.08 | 17.9 | 0.00634 | 355000
9 | hu.3107.L7H15 (antibody, V domains shown, also called hu.Notch-3107.L7H15) VH: EVQLVQSGAEVKKPGESLKISCKGSGYTFSNYVIHWVRQMPGKGPEWTGYIIPGSGGTKFNEKFKGQATISVDKSITTAYLQWSSLKASDTAMYYCARDGAGSFTYWGQGTLVTVSS VL: DIVMTQSPDSLAVSLGERATINCRSSQSLVHSDGNTYLHWYQQKPGQPPKLLIYRISNRFSGVPDRFSGSGSGTDFTLTISSLQAEDVAVYYCLQSTHFPDTFGGGTKVEIK |  |  |  |  |  | 9.16 | 11.6 | 0.00407 | 350000
10 | hu.3107.L1H13 (antibody, V domains shown, also called hu.Notch-3107.L1H13) VH: EVQLVQSGAEVKKPGASVKVSCKASGYTFSNYVIHWVRQAPGQGPEWTGYIIPGSGGTKFNEKFKGRATSTVDTSITTAYMELSRLRSDDTVVYYCARDGAGSFTYWGQGTLVTVSS VL: DVVMTQSPLSLPVTLGQPASISCRSSQSLVHSDGNTYLHWFQQRPGQSPRLLIYRISNRFSGVPDRFSGSGSGTDFTLKISRVEAEDVGVYYCLQSTHFPDTFGGGTKVEIK |  |  |  |  |  | 4.92 | 15.5 | 0.00587 | 379000
11 | 1B2.v104.huFab.LC_K149C.dPEG6_dimer (other, engineered Cys (K149C) joined through maleimide to Bis-Mal-PEG6) heavy: EVQLVESGGGLVQPGGSLKLSCAVSGFTFSDFYMEWVRQASGKGLEWVAAQRNKANDFSIVYSASVKDRFTISRDDSKSTLYLQMNSLKTEDTAVYYCSRDGGKLALDAWGQGTLVTVSSASTKGPSVFPLAPSSKSTSGGTAALGCLVKDYFPEPVTVSWNSGALTSGVHTFPAVLQSSGLYSLSSVVTVPSSSLGTQTYICNVNHKPSNTKVDKKVEPKSCD light: DIQMTQSPSSVSASVGDRVTITCQTSEDIYSGLAWYQQKPGKSPKLLIYGASRLQDGVPSRFSGSGSGTDYTLTISSLQPEDFATYYCQQGFKYPLTFGGGTKVEIKRTVAAPSVFIFPPSDEQLKSGTASVVCLLNNFYPREAKVQWCVDNALQSGNSQESVTEQDSKDSTYSLSSTLTLSKADYEKHKVYACEVTHQGLSSPVTKSFNRGEC |  |  |  | > 1000 |  |  |  |  | 

The remaining lines, values ahead:

Row | Kd (huNotch2-EGF6-10 [1]) [nM] | koff (huNotch2-EGF6-10 [1]) [s⁻¹] | kon (huNotch2-EGF6-10 [1]) [M⁻¹ s⁻¹] | DLL Inhibition (IC50) [2] [nM] | Jag1 Inhibition (IC50) [2] [nM] | Jagged1 IC50 [3] [nM] | Kd (huNotch2-EGF6-10 [4]) [nM] | koff (huNotch2-EGF6-10 [4]) [s⁻¹] | kon (huNotch2-EGF6-10 [4]) [M⁻¹ s⁻¹] | Binder
12 |  |  |  |  |  | 5.94 | 9.94 | 0.00353 | 355000 | hu.3107.L7H13 (antibody, V domains shown, also called hu.Notch-3107.L7H13) VH: EVQLVQSGAEVKKPGASVKVSCKASGYTFSNYVIHWVRQAPGQGPEWTGYIIPGSGGTKFNEKFKGRATSTVDTSITTAYMELSRLRSDDTVVYYCARDGAGSFTYWGQGTLVTVSS VL: DIVMTQSPDSLAVSLGERATINCRSSQSLVHSDGNTYLHWYQQKPGQPPKLLIYRISNRFSGVPDRFSGSGSGTDFTLTISSLQAEDVAVYYCLQSTHFPDTFGGGTKVEIK
13 |  |  |  |  |  | 11 | 9.54 | 0.00367 | 384000 | hu.3107.L7H12 (antibody, V domains shown, also called hu.Notch-3107.L7H12) VH: EVQLVQSGAEVKKPGASVKVSCKASGYTFSNYVIHWVRQAPGQGPEWTGYIIPGSGGTKFNEKFKGRATSTVDTSSTTAYMELSRLRSDDTVVYYCARDGAGSFTYWGQGTLVTVSS VL: DIVMTQSPDSLAVSLGERATINCRSSQSLVHSDGNTYLHWYQQKPGQPPKLLIYRISNRFSGVPDRFSGSGSGTDFTLTISSLQAEDVAVYYCLQSTHFPDTFGGGTKVEIK
14 |  |  |  |  |  | 6.42 | 9.47 | 0.00424 | 448000 | hu.3107.L6H13 (antibody, V domains shown, also called hu.Notch-3107.L6H13) VH: EVQLVQSGAEVKKPGASVKVSCKASGYTFSNYVIHWVRQAPGQGPEWTGYIIPGSGGTKFNEKFKGRATSTVDTSITTAYMELSRLRSDDTVVYYCARDGAGSFTYWGQGTLVTVSS VL: DVVMTQSPDSLAVSLGERATINCRSSQSLVHSDGNTYLHWFQQKPGQPPKLLIYRISNRFSGVPDRFSGSGSGTDFTLTISSLQAEDVAVYYCLQSTHFPDTFGGGTKVEIK
15 |  |  |  |  |  | 8.03 | 9.23 | 0.00365 | 396000 | hu.3107.L6H15 (antibody, V domains shown, also called hu.Notch-3107.L6H15) VH: EVQLVQSGAEVKKPGESLKISCKGSGYTFSNYVIHWVRQMPGKGPEWTGYIIPGSGGTKFNEKFKGQATISVDKSITTAYLQWSSLKASDTAMYYCARDGAGSFTYWGQGTLVTVSS VL: DVVMTQSPDSLAVSLGERATINCRSSQSLVHSDGNTYLHWFQQKPGQPPKLLIYRISNRFSGVPDRFSGSGSGTDFTLTISSLQAEDVAVYYCLQSTHFPDTFGGGTKVEIK
16 |  |  |  |  |  | 10.5 | 10.4 | 0.00359 | 346000 | hu.3107.L7H14 (antibody, V domains shown, also called hu.Notch-3107.L7H14) VH: EVQLVQSGAEVKKPGESLKISCKGSGYTFSNYVIHWVRQMPGKGPEWTGYIIPGSGGTKFNEKFKGQATISVDKSSTTAYLQWSSLKASDTAMYYCARDGAGSFTYWGQGTLVTVSS VL: DIVMTQSPDSLAVSLGERATINCRSSQSLVHSDGNTYLHWYQQKPGQPPKLLIYRISNRFSGVPDRFSGSGSGTDFTLTISSLQAEDVAVYYCLQSTHFPDTFGGGTKVEIK
